± gives the standard deviation of the averaged measurements.
B1: library; a variant is named by its letters at N, in order (parent)
chain: GCUGUCACCGGUGCUUGGUACGUUAUAUUCAGCCGGUCUGAUGAGUCUNNNNNNAGACGAAACAGC

Tests used:
(6R,S)-folinic acid [1] = variants of: B1; test: normalized RNA/DNA level without ligand (relative to sTRSVctl = 100) (log10 (% of sTRSVctl)); HEK293T overexpressing SLC46A1; higher = less ribozyme self-cleavage, higher mRNA level; details: without (6R,S)-folinic acid; ligand present: no
Outline: (§1)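 HEK293T cells were transfected with library plasmids carrying ribozyme switches linked to an mCherry reporter, or an eGFP reporter in some ligand experiments, at 4 µg per well of a 6-well plate, with any ligand added 1 h beforehand. After 72 h, total RNA was extracted with EDTA, reverse-transcribed, amplified, barcoded and sequenced. RNA level was defined as RNA reads over DNA reads, normalized to a spiked-in non-cleaving sequence or to the top-ranked sequences. That value was multiplied by 100 and converted to log10, the top set was 25 sequences, and only sequences with ≥100 DNA reads were retained.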

(6R,S)-folinic acid [2] = variants of: B1; test: normalized RNA/DNA level with ligand (relative to sTRSVctl = 100) (log10 (% of sTRSVctl)); HEK293T overexpressing SLC46A1; ligand concentration (+) RNA-Seq: 6 mM; higher = less ribozyme self-cleavage, higher mRNA level; details: with (6R,S)-folinic acid; ligand present: yes
Outline: as §1

Row | Variant | normalized RNA/DNA level without ligand (log10) ((6R,S)-folinic acid [1]) | normalized RNA/DNA level with ligand (log10) ((6R,S)-folinic acid [2])
1 | GCUGUCACCGGUGCUUGGUACGUUAUAUUCAGCCGGUCUGAUGAGUCUGCAUACAGACGAAACAGC [GCAUAC] | 1.9845 ± 0.0011 | 2.03 ± 0.033
2 | GCUGUCACCGGUGCUUGGUACGUUAUAUUCAGCCGGUCUGAUGAGUCUACAUAGAGACGAAACAGC [ACAUAG] | 1.935 ± 0.013 | 2.02 ± 0.021
3 | GCUGUCACCGGUGCUUGGUACGUUAUAUUCAGCCGGUCUGAUGAGUCUACAUAUAGACGAAACAGC [ACAUAU] | 1.94 ± 0.037 | 2.01 ± 0.022
4 | GCUGUCACCGGUGCUUGGUACGUUAUAUUCAGCCGGUCUGAUGAGUCUGCAUCCAGACGAAACAGC [GCAUCC] | 2.059 ± 0.0098 | 2.048 ± 0.0088
5 | GCUGUCACCGGUGCUUGGUACGUUAUAUUCAGCCGGUCUGAUGAGUCUGCAUCAAGACGAAACAGC [GCAUCA] | 2.023 ± 0.013 | 2.03 ± 0.022
6 | GCUGUCACCGGUGCUUGGUACGUUAUAUUCAGCCGGUCUGAUGAGUCUGCAUCGAGACGAAACAGC [GCAUCG] | 2.01 ± 0.029 | 2.061 ± 0.011
7 | GCUGUCACCGGUGCUUGGUACGUUAUAUUCAGCCGGUCUGAUGAGUCUGCAUCUAGACGAAACAGC [GCAUCU] | 2.054 ± 0.0071 | 2.04 ± 0.058
8 | GCUGUCACCGGUGCUUGGUACGUUAUAUUCAGCCGGUCUGAUGAGUCUACAUUCAGACGAAACAGC [ACAUUC] | 2.072 ± 0.0067 | 2.027 ± 0.0058
9 | GCUGUCACCGGUGCUUGGUACGUUAUAUUCAGCCGGUCUGAUGAGUCUACAUUAAGACGAAACAGC [ACAUUA] | 2.006 ± 0.017 | 2.02 ± 0.034
10 | GCUGUCACCGGUGCUUGGUACGUUAUAUUCAGCCGGUCUGAUGAGUCUUCAUCUAGACGAAACAGC [UCAUCU] | 2.064 ± 0.0079 | 2.055 ± 0.0055
11 | GCUGUCACCGGUGCUUGGUACGUUAUAUUCAGCCGGUCUGAUGAGUCUUCAUCAAGACGAAACAGC [UCAUCA] | 2.05 ± 0.039 | 2.03 ± 0.044
12 | GCUGUCACCGGUGCUUGGUACGUUAUAUUCAGCCGGUCUGAUGAGUCUUCAUCGAGACGAAACAGC [UCAUCG] | 1.997 ± 0.0043 | 2.01 ± 0.04
13 | GCUGUCACCGGUGCUUGGUACGUUAUAUUCAGCCGGUCUGAUGAGUCUUCAUCCAGACGAAACAGC [UCAUCC] | 2.07 ± 0.051 | 2.05 ± 0.041
14 | GCUGUCACCGGUGCUUGGUACGUUAUAUUCAGCCGGUCUGAUGAGUCUUCAUUAAGACGAAACAGC [UCAUUA] | 2.003 ± 0.014 | 2.04 ± 0.023
15 | GCUGUCACCGGUGCUUGGUACGUUAUAUUCAGCCGGUCUGAUGAGUCUUCAUUCAGACGAAACAGC [UCAUUC] | 2.067 ± 0.013 | 2.07 ± 0.021
16 | GCUGUCACCGGUGCUUGGUACGUUAUAUUCAGCCGGUCUGAUGAGUCUACAUCGAGACGAAACAGC [ACAUCG] | 2.006 ± 0.014 | 2.07 ± 0.027
17 | GCUGUCACCGGUGCUUGGUACGUUAUAUUCAGCCGGUCUGAUGAGUCUACAUCUAGACGAAACAGC [ACAUCU] | 2.024 ± 0.011 | 2.03 ± 0.037
18 | GCUGUCACCGGUGCUUGGUACGUUAUAUUCAGCCGGUCUGAUGAGUCUCCAUGGAGACGAAACAGC [CCAUGG] | 1.986 ± 0.013 | 2.016 ± 0.015
19 | GCUGUCACCGGUGCUUGGUACGUUAUAUUCAGCCGGUCUGAUGAGUCUCCAUGAAGACGAAACAGC [CCAUGA] | 1.981 ± 0.0035 | 2 ± 0.059
20 | GCUGUCACCGGUGCUUGGUACGUUAUAUUCAGCCGGUCUGAUGAGUCUCCAUGCAGACGAAACAGC [CCAUGC] | 2.054 ± 0.015 | 2.05 ± 0.04
21 | GCUGUCACCGGUGCUUGGUACGUUAUAUUCAGCCGGUCUGAUGAGUCUACAUGUAGACGAAACAGC [ACAUGU] | 2.022 ± 0.0056 | 2.02 ± 0.023

Row | Variant | normalized RNA/DNA level without ligand (log10) ((6R,S)-folinic acid [1]) | normalized RNA/DNA level with ligand (log10) ((6R,S)-folinic acid [2])
22 | GCUGUCACCGGUGCUUGGUACGUUAUAUUCAGCCGGUCUGAUGAGUCUACAUGCAGACGAAACAGC [ACAUGC] | 2.014 ± 0.014 | 2.04 ± 0.07
23 | GCUGUCACCGGUGCUUGGUACGUUAUAUUCAGCCGGUCUGAUGAGUCUACAUGAAGACGAAACAGC [ACAUGA] | 1.979 ± 0.01 | 2.034 ± 0.019
24 | GCUGUCACCGGUGCUUGGUACGUUAUAUUCAGCCGGUCUGAUGAGUCUUCAUACAGACGAAACAGC [UCAUAC] | 2.029 ± 0.0064 | 1.988 ± 0.019
25 | GCUGUCACCGGUGCUUGGUACGUUAUAUUCAGCCGGUCUGAUGAGUCUUCAUAUAGACGAAACAGC [UCAUAU] | 1.952 ± 0.0097 | 1.98 ± 0.03
26 | GCUGUCACCGGUGCUUGGUACGUUAUAUUCAGCCGGUCUGAUGAGUCUUCAUAGAGACGAAACAGC [UCAUAG] | 1.829 ± 0.0068 | 1.984 ± 0.015
27 | GCUGUCACCGGUGCUUGGUACGUUAUAUUCAGCCGGUCUGAUGAGUCUGCAUUCAGACGAAACAGC [GCAUUC] | 2.03 ± 0.052 | 2.023 ± 0.0067
28 | GCUGUCACCGGUGCUUGGUACGUUAUAUUCAGCCGGUCUGAUGAGUCUCCAUCGAGACGAAACAGC [CCAUCG] | 2.012 ± 0.01 | 2.017 ± 0.014
29 | GCUGUCACCGGUGCUUGGUACGUUAUAUUCAGCCGGUCUGAUGAGUCUCCAUCAAGACGAAACAGC [CCAUCA] | 2.026 ± 0.0086 | 2.02 ± 0.05
30 | GCUGUCACCGGUGCUUGGUACGUUAUAUUCAGCCGGUCUGAUGAGUCUCCAUCUAGACGAAACAGC [CCAUCU] | 2.071 ± 0.0041 | 2.07 ± 0.035
31 | GCUGUCACCGGUGCUUGGUACGUUAUAUUCAGCCGGUCUGAUGAGUCUCCAUCCAGACGAAACAGC [CCAUCC] | 2.094 ± 0.013 | 2.06 ± 0.021
32 | GCUGUCACCGGUGCUUGGUACGUUAUAUUCAGCCGGUCUGAUGAGUCUCCAUUAAGACGAAACAGC [CCAUUA] | 1.9907 ± 0.00033 | 2 ± 0.023
33 | GCUGUCACCGGUGCUUGGUACGUUAUAUUCAGCCGGUCUGAUGAGUCUCCAUUCAGACGAAACAGC [CCAUUC] | 2.045 ± 0.02 | 2.03 ± 0.048
34 | GCUGUCACCGGUGCUUGGUACGUUAUAUUCAGCCGGUCUGAUGAGUCUGCAUGUAGACGAAACAGC [GCAUGU] | 1.983 ± 0.0026 | 2.02 ± 0.055
35 | GCUGUCACCGGUGCUUGGUACGUUAUAUUCAGCCGGUCUGAUGAGUCUGCAUGCAGACGAAACAGC [GCAUGC] | 2.025 ± 0.0027 | 1.999 ± 0.0055
36 | GCUGUCACCGGUGCUUGGUACGUUAUAUUCAGCCGGUCUGAUGAGUCUGCAUGGAGACGAAACAGC [GCAUGG] | 1.944 ± 0.0075 | 2.04 ± 0.028
37 | GCUGUCACCGGUGCUUGGUACGUUAUAUUCAGCCGGUCUGAUGAGUCUCCAUAUAGACGAAACAGC [CCAUAU] | 1.961 ± 0.0029 | 1.99 ± 0.032
38 | GCUGUCACCGGUGCUUGGUACGUUAUAUUCAGCCGGUCUGAUGAGUCUCCAUAGAGACGAAACAGC [CCAUAG] | 1.922 ± 0.0071 | 1.99 ± 0.02
39 | GCUGUCACCGGUGCUUGGUACGUUAUAUUCAGCCGGUCUGAUGAGUCUUCAUGUAGACGAAACAGC [UCAUGU] | 1.942 ± 0.0042 | 2.01 ± 0.039
40 | GCUGUCACCGGUGCUUGGUACGUUAUAUUCAGCCGGUCUGAUGAGUCUUCAUGGAGACGAAACAGC [UCAUGG] | 1.947 ± 0.0059 | 2.03 ± 0.048
41 | GCUGUCACCGGUGCUUGGUACGUUAUAUUCAGCCGGUCUGAUGAGUCUUCAUGAAGACGAAACAGC [UCAUGA] | 2.01 ± 0.028 | 2.053 ± 0.019
